# Experimental data from IntAct's records for PubMed 25502805.
# B1: Emerin (Homo sapiens), P50402 (parent)
# chain: MDNYADLSDTELTTLLRRYNIPHGPVVGSTRRLYEKKIFEYETQRRRLSPPSSSAASSYSFSDLNSTRGDADMYDLPKKEDALLYQSKGYNDDYYEESYFTTRTYGEPESAGPSRAVRQSVTSFPDADAFHHQVHDDDLLSSSEEECKDRERPMYGRDSAYQSITHYRPVSASRSSLDLSYYPTSSSTSFMSSSSSSSSWLTRRAIRPENRAPGAGLGQDRQVPLWGQLLLFLVFVIVLFFIYHFMQAEEGNPF
# partner: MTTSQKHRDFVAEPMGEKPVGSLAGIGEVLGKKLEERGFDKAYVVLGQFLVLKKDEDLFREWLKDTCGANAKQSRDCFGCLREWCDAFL
# B2: ADP-ribosylation factor-like protein 2-binding protein (Homo sapiens), Q9Y2Y0 (parent)
# chain: MDALEGESFALSFSSASDAEFDAVVGYLEDIIMDDEFQLLQRNFMDKYYLEFEDTEENKLIYTPIFNEYISLVEKYIEEQLLQRIPEFNMAAFTTTLQHHKDEVAGDIFDMLLTFTDFLAFKEMFLDYRAEKEGRGLDLSSGLVVTSLCKSSSLPASQNNLRH
# B3: pre-mRNA splicing regulator USH1G (Homo sapiens), Q495M9 (parent)
# chain: MNDQYHRAARDGYLELLKEATRKELNAPDEDGMTPTLWAAYHGNLESLRLIVSRGGDPDKCDIWGNTPLHLAASNGHLHCLSFLVSFGANIWCLDNDYHTPLDMAAMKGHMECVRYLDSIAAKQSSLNPKLVGKLKDKAFREAERRIRECAKLQRRHHERMERRYRRELAERSDTLSFSSLTSSTLSRRLQHLALGSHLPYSQATLHGTARGKTKMQKKLERRKQGGEGTFKVSEDGRKSARSLSGLQLGSDVMFVRQGTYANPKEWGRAPLRDMFLSDEDSVSRATLAAEPAHSEVSTDSGHDSLFTRPGLGTMVFRRNYLSSGLHGLGREDGGLDGVGAPRGRLQSSPSLDDDSLGSANSLQDRSCGEELPWDELDLGLDEDLEPETSPLETFLASLHMEDFAALLRQEKIDLEALMLCSDLDLRSISVPLGPRKKILGAVRRRRQAMERPPALEDTEL
# partner: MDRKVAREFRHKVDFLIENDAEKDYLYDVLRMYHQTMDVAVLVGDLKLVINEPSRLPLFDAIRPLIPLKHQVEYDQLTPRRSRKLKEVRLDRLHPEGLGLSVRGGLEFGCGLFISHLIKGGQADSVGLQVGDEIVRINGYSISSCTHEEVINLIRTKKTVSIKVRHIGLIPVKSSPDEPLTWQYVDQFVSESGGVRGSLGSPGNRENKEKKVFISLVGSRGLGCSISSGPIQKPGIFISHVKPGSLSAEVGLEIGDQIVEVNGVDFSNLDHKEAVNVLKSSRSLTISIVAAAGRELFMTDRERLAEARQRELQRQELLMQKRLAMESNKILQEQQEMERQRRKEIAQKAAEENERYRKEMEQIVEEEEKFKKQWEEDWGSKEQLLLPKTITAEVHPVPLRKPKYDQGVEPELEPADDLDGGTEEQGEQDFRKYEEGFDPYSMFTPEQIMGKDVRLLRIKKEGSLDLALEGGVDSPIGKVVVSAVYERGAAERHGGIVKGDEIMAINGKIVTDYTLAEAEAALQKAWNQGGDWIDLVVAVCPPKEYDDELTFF
# B4: Cyclin-dependent kinase 4 inhibitor C (Homo sapiens), P42773 (parent)
# chain: MAEPWGNELASAAARGDLEQLTSLLQNNVNVNAQNGFGRTALQVMKLGNPEIARRLLLRGANPDLKDRTGFAVIHDAARAGFLDTLQTLLEFQADVNIEDNEGNLPLHLAAKEGHLRVVEFLVKHTASNVGHRNHKGDTACDLARLYGRNEVVSLMQANGAGGATNLQ
# B5: Mothers against decapentaplegic homolog 4 (Homo sapiens), Q13485 (parent)
# chain: MDNMSITNTPTSNDACLSIVHSLMCHRQGGESETFAKRAIESLVKKLKEKKDELDSLITAITTNGAHPSKCVTIQRTLDGRLQVAGRKGFPHVIYARLWRWPDLHKNELKHVKYCQYAFDLKCDSVCVNPYHYERVVSPGIDLSGLTLQSNAPSSMMVKDEYVHDFEGQPSLSTEGHSIQTIQHPPSNRASTETYSTPALLAPSESNATSTANFPNIPVASTSQPASILGGSHSEGLLQIASGPQPGQQQNGFTGQPATYHHNSTTTWTGSRTAPYTPNLPHHQNGHLQHHPPMPPHPGHYWPVHNELAFQPPISNHPAPEYWCSIAYFEMDVQVGETFKVPSSCPIVTVDGYVDPSGGDRFCLGQLSNVHRTEAIERARLHIGKGVQLECKGEGDVWVRCLSDHAVFVQSYYLDREAGRAPGDAVHKIYPSAYIKVFDLRQCHRQMQQQAATAQAAAAAQAAAVAGNIPGPGSVGGIAPAISLSAAAGIGVDDLRRLCILRMSFVKGWGPDYPRQSIKETPCWIEIHLHRALQLLDEVLHTMPIADPQPLD
# B6: Cyclin-dependent kinase 4 (Homo sapiens), P11802 (parent)
# chain: MATSRYEPVAEIGVGAYGTVYKARDPHSGHFVALKSVRVPNGGGGGGGLPISTVREVALLRRLEAFEHPNVVRLMDVCATSRTDREIKVTLVFEHVDQDLRTYLDKAPPPGLPAETIKDLMRQFLRGLDFLHANCIVHRDLKPENILVTSGGTVKLADFGLARIYSYQMALTPVVVTLWYRAPEVLLQSTYATPVDMWSVGCIFAEMFRRKPLFCGNSEADQLGKIFDLIGLPPEDDWPRDVSLPRGAFPPRGPRPVQSVVPEMEESGAQLLLEMLTFNPHKRISAFRALQHSYLHKDEGNPE
# Variants of: B1
# Settings: with baf_human BANF1, O75531
row,effect of a mutation on the interaction,Variant
1,with no effect,S54F
2,with no effect,P183T
3,with no effect,D72V

# Variants of: B2
# Settings: with arl2_human ARL2, P36404
# arl2_human ARL2, P36404, sequence (P36404 whole entry): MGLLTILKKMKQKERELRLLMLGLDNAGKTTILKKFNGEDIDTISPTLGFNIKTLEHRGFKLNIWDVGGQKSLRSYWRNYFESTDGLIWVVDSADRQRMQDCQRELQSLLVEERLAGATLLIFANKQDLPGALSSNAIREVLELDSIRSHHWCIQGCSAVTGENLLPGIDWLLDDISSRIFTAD
row,effect of a mutation on the interaction,Variant
1,disrupting interaction strength,M45R

# Variants of: B3
# Settings: with ush1c_human USH1C
row,effect of a mutation on the interaction,Variant
1,with no effect,L16V
2,with no effect,L48P

# Variants of: B4
# Settings: with cdk6_human CDK6, Q00534
# cdk6_human CDK6, Q00534, sequence (Q00534 whole entry): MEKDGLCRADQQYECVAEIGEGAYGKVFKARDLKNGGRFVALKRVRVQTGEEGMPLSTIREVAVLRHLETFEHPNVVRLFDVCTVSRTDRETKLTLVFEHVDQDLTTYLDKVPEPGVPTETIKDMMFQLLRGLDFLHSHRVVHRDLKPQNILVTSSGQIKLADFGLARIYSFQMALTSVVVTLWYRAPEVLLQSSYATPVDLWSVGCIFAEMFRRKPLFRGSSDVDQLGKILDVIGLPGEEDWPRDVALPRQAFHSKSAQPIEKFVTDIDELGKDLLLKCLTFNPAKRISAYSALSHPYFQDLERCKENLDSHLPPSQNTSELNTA
row,effect of a mutation on the interaction,Variant
1,with no effect,V31L

# Variants of: B5
# Settings: with smad3_human SMAD3, P84022
# smad3_human SMAD3, P84022, sequence (P84022 whole entry, looked up): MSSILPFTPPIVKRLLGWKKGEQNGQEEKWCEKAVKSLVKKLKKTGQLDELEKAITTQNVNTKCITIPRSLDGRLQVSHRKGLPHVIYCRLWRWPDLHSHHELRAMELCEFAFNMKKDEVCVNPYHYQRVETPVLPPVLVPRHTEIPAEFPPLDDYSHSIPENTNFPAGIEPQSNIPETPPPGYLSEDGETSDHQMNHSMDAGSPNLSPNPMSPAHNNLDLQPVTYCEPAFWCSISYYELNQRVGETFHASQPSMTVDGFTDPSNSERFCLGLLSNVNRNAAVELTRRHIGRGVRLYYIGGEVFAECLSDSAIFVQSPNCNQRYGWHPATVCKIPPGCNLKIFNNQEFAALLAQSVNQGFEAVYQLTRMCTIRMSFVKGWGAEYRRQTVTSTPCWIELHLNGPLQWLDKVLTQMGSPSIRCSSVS
row,effect of a mutation on the interaction,Variant
1,with no effect,N13S
2,disrupting interaction strength,Y353S
3,disrupting interaction strength,R361C

# Variants of: B5
# Settings: with smad9_human SMAD9, O15198
# smad9_human SMAD9, O15198, sequence (O15198 whole entry): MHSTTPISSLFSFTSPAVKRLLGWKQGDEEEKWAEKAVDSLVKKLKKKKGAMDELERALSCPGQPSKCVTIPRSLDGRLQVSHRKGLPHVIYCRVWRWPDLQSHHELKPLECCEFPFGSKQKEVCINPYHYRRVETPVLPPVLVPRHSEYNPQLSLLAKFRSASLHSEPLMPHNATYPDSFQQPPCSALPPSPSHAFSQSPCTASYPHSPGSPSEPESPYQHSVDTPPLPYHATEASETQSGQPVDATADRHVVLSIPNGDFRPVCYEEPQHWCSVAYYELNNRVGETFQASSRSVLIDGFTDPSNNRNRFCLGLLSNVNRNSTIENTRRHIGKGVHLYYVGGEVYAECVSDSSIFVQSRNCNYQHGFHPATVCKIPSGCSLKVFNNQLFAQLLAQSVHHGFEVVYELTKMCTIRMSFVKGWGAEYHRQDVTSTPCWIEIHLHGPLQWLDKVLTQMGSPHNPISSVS
row,effect of a mutation on the interaction,Variant
1,with no effect,N13S
2,disrupting interaction strength,Y353S
3,disrupting interaction strength,R361C

# Variants of: B5
# Settings: with smad3_human SMAD3, P84022
# Remark: another data set of the same source
row,effect of a mutation on the interaction,Variant
1,disrupting interaction strength,G352R
2,disrupting interaction strength,E330K
3,disrupting interaction strength,L533R
4,disrupting interaction strength,C324R
5,disrupting interaction strength,V350D

# Variants of: B6
# Settings: with ccnd1_human CCND1, P24385
# ccnd1_human CCND1, P24385, sequence (P24385 whole entry): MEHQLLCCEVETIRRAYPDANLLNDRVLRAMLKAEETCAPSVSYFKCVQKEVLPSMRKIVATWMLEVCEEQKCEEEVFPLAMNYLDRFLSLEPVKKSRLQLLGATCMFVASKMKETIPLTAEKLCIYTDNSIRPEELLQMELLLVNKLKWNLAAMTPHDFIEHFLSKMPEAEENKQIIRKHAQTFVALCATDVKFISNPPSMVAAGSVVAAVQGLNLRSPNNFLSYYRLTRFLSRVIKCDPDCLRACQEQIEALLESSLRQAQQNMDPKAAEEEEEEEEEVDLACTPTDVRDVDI
row,effect of a mutation on the interaction,Variant
1,with no effect,N41S
2,with no effect,S52N
